The source of these data is patent US20230110958A1 (Regeneron, published 2023).

The target of test [1] is T1, murine IL27 receptor (IL27Ra and gp130) on mouse cells (MC9/STAT3-Luc reporter cells; splenic CD4+ T cells) (mouse, UniProt O70394 25-623; Q00560 23-917).
T1 sequence (looked up) 1: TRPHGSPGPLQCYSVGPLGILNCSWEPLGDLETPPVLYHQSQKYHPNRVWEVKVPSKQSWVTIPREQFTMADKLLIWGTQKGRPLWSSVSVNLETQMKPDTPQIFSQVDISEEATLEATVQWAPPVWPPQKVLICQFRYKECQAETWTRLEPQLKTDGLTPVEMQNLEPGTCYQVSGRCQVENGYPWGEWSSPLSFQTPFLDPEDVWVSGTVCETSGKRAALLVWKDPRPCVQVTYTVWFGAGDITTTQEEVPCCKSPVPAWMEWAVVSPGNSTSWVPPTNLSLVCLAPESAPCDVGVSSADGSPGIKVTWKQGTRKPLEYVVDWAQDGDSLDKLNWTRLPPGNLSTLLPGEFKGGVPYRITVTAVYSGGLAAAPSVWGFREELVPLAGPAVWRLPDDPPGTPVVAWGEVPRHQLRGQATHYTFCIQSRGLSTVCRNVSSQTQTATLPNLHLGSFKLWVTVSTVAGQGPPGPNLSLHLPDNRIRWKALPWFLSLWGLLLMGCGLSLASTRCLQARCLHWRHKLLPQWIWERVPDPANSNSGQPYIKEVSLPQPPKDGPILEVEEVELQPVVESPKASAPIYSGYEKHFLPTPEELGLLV
T1 sequence (looked up) 2: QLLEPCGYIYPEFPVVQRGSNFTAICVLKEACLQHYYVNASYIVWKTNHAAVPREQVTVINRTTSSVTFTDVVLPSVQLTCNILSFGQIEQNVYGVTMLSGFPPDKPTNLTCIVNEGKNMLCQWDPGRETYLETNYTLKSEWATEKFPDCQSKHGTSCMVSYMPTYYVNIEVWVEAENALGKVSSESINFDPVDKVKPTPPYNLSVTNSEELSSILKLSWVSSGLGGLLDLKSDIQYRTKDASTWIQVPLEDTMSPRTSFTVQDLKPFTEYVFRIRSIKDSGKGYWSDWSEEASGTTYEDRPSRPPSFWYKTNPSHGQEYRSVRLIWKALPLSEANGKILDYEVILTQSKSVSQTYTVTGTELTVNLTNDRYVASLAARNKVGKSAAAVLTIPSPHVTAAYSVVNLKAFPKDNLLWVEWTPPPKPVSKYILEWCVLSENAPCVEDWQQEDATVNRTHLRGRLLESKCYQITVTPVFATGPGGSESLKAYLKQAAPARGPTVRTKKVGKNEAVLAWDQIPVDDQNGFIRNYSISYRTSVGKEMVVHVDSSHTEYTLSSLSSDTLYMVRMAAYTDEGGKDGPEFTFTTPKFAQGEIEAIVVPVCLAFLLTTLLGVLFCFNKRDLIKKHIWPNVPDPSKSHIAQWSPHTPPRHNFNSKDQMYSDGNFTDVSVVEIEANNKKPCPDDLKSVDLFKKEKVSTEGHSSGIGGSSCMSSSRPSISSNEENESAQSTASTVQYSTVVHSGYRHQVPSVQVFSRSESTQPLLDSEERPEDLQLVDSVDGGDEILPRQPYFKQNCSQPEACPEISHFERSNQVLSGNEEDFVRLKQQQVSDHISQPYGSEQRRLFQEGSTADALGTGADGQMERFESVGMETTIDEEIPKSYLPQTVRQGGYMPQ
Description: cell-based or functional assay.

Test [2] addresses T2, murine IL27 receptor (IL27Ra and gp130) on mouse cells (MC9/STAT3-Luc reporter cells; splenic CD4+ T cells) (mouse) (UniProt O70394).
T2 sequence (looked up) 1: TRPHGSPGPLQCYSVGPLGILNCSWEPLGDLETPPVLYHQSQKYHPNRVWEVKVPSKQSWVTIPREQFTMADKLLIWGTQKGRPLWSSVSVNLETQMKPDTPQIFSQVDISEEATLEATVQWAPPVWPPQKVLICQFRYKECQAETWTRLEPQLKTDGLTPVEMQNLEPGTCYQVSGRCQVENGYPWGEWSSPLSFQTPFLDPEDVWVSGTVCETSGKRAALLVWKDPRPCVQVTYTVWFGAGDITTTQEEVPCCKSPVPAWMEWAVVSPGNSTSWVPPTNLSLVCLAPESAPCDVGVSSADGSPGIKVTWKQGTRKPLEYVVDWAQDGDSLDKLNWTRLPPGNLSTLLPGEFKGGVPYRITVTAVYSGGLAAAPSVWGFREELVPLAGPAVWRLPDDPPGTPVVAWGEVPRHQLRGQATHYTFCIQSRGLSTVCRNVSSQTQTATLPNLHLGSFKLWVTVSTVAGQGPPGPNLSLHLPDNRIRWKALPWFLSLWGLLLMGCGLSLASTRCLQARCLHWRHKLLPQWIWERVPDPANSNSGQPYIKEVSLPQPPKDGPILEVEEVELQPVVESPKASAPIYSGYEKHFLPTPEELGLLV
T2 sequence (looked up) 2: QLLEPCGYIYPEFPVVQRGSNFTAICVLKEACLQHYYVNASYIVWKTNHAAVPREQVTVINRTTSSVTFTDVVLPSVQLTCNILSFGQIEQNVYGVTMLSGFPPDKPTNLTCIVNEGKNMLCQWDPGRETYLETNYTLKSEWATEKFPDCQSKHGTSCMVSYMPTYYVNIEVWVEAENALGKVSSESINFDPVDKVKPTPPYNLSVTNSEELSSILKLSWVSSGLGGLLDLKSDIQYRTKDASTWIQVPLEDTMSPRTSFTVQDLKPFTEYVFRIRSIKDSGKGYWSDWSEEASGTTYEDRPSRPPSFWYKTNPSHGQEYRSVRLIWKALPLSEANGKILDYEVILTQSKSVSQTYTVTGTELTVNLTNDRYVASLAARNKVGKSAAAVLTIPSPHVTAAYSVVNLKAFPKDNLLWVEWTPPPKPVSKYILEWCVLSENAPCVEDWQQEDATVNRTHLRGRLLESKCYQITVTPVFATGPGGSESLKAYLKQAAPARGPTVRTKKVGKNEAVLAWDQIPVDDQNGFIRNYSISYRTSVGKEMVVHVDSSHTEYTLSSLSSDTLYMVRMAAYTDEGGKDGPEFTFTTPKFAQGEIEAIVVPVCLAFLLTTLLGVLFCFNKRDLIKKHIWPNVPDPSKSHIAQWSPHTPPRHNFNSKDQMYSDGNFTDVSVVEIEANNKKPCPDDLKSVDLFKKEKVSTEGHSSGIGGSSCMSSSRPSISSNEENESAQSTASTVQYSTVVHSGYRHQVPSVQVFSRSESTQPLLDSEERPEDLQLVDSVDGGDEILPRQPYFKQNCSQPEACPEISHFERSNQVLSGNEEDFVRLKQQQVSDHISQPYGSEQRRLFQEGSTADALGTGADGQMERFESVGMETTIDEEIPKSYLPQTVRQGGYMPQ
Description: cell-based or functional assay.

B1: IL27M27, monovalent Fc x EB13-p28 (W195A) (Fc fusion)
chain 1: ESKYGPPCPPCPAPPVAGPSVFLFPPKPKDTLMISRTPEVTCVVVDVSQEDPEVQFNWYVDGVEVHNAKTKPREEQFNSTYRVVSVLTVLHQDWLNGKEYKCKVSNKGLPSSIEKTISKAKGQPREPQVYTLPPSQEEMTKNQVSLWCLVKGFYPSDIAVEWESNGQPENNYKTTPPVLDSDGSFFLYSRLTVDKSRWQEGNVFSCSVMHEALHNHYTQKSLSLSLGKGGGGSGGGGSGGGGSYTETALVALSQPRVQCHASRYPVAVDCSWTPLQAPNSTRSTSFIATYRLGVATQQQSQPCLQRSPQASRCTIPDVHLFSTVPYMLNVTAVHPGGASSSLLAFVAERIIKPDPPEGVRLRTAGQRLQVLWHPPASWPFPDIFSLKYRLRYRRRGASHFRQVGPIEATTFTLRNSKPHAKYCIQVSAQDLTDYGKPSDWSLPGQVESAPHKPGGGGSGGGGSGGGGSGGGGSFPTDPLSLQELRREFTVSLYLARKLLSEVQGYVHSFAESRLPGVNLDLLPLGYHLPNVSLTFQAWHHLSDSERLCFLATTLRPFPAMLGGLGTQGTWTSSEREQLWAMRLDLRDLHRHLRFQVLAAGFKCSKEEEDKEEEEEEEEEEKKLPLGALGGPNQVSSQVSAPQLLYTYQLLHSLELVLSRAVRDLLLLSLPRRPGSAWDS
chain 2: ESKYGPPCPPCPAPPVAGPSVFLFPPKPKDTLMISRTPEVTCVVVDVSQEDPEVQFNWYVDGVEVHNAKTKPREEQFNSTYRVVSVLTVLHQDWLNGKEYKCKVSNKGLPSSIEKTISKAKGQPREPQVYTLPPSQEEMTKNQVSLSCAVKGFYPSDIAVEWESNGQPENNYKTTPPVLDSDGSFFLVSRLTVDKSRWQEGNVFSCSVMHEALHNRFTQKSLSLSPGK
As to B1, the “FOLD INDUCTION, STAT3 luciferase, MC9/STAT3-Luc cells” value in test [1] was determined as 1.2 fold.

B2: IL27M26, monovalent Fc x EB13-p28 (L198A, L199A) (Fc fusion)
chain 1: ESKYGPPCPPCPAPPVAGPSVFLFPPKPKDTLMISRTPEVTCVVVDVSQEDPEVQFNWYVDGVEVHNAKTKPREEQFNSTYRVVSVLTVLHQDWLNGKEYKCKVSNKGLPSSIEKTISKAKGQPREPQVYTLPPSQEEMTKNQVSLWCLVKGFYPSDIAVEWESNGQPENNYKTTPPVLDSDGSFFLYSRLTVDKSRWQEGNVFSCSVMHEALHNHYTQKSLSLSLGKGGGGSGGGGSGGGGSYTETALVALSQPRVQCHASRYPVAVDCSWTPLQAPNSTRSTSFIATYRLGVATQQQSQPCLQRSPQASRCTIPDVHLFSTVPYMLNVTAVHPGGASSSLLAFVAERIIKPDPPEGVRLRTAGQRLQVLWHPPASWPFPDIFSLKYRLRYRRRGASHFRQVGPIEATTFTLRNSKPHAKYCIQVSAQDLTDYGKPSDWSLPGQVESAPHKPGGGGSGGGGSGGGGSGGGGSFPTDPLSLQELRREFTVSLYLARKLLSEVQGYVHSFAESRLPGVNLDLLPLGYHLPNVSLTFQAWHHLSDSERLCFLATTLRPFPAMLGGLGTQGTWTSSEREQLWAMRLDLRDLHRHLRFQVLAAGFKCSKEEEDKEEEEEEEEEEKKLPLGALGGPNQVSSQVSWPQAAYTYQLLHSLELVLSRAVRDLLLLSLPRRPGSAWDS
chain 2: ESKYGPPCPPCPAPPVAGPSVFLFPPKPKDTLMISRTPEVTCVVVDVSQEDPEVQFNWYVDGVEVHNAKTKPREEQFNSTYRVVSVLTVLHQDWLNGKEYKCKVSNKGLPSSIEKTISKAKGQPREPQVYTLPPSQEEMTKNQVSLSCAVKGFYPSDIAVEWESNGQPENNYKTTPPVLDSDGSFFLVSRLTVDKSRWQEGNVFSCSVMHEALHNRFTQKSLSLSPGK
For B2, in test [1], the “EC50 (M), STAT3 luciferase, MC9/STAT3-Luc cells” value worked out at 3.85e-10 M and the “FOLD INDUCTION, STAT3 luciferase, MC9/STAT3-Luc cells” value was 2.8 fold.

B3: Recombinant murine IL27 (R&D Systems cat# 2700-ML-010/CF), Mouse EBI3-(GGGS)4-Mouse p28-6-His tag (ligand)
chain: YTETALVALSQPRVQCHASRYPVAVDCSWTPLQAPNSTRSTSFIATYRLGVATQQQSQPCLQRSPQASRCTIPDVHLFSTVPYMLNVTAVHPGGASSSLLAFVAERIIKPDPPEGVRLRTAGQRLQVLWHPPASWPFPDIFSLKYRLRYRRRGASHFRQVGPIEATTFTLRNSKPHAKYCIQVSAQDLTDYGKPSDWSLPGQVESAPHKPGGGSGGGSGGGSGGGSFPTDPLSLQELRREFTVSLYLARKLLSEVQGYVHSFAESRLPGVNLDLLPLGYHLPNVSLTFQAWHHLSDSERLCFLATTLRPFPAMLGGLGTQGTWTSSEREQLWAMRLDLRDLHRHLRFQVLAAGFKCSKEEEDKEEEEEEEEEEKKLPLGALGGPNQVSSQVSWPQLLYTYQLLHSLELVLSRAVRDLLLLSLPRRPGSAWDSHHHHHH
For the molecule B3, in test [2], the EC50 (M), STAT3 luciferase, MC9/STAT3-Luc cells is 3.22e-12 M; the EC50 (M), STAT3 luciferase, MC9 cells is 4.62e-12 M; the EC50, luciferase activity, MC9/STAT3-Luc reporter cells is 6.3 pM; the EC50, phosphorylation of STAT1 in CD4+ T-cells is 0.0244 mg/L. In test [2], this molecule yielded an FOLD INDUCTION, STAT3 luciferase, MC9/STAT3-Luc cells of 5.25 fold and an FOLD INDUCTION, STAT3 luciferase, MC9 cells of 2.86 fold.
